Reference: the DeepSol protein solubility set

Experiment: soluble on expression in E. coli; label from the status in PepcDB or PDB records
In the case of “MGSDKIHHHHHHMMERLIIDDSRFNFVPKVKTAYKAPPGLDEKLIMEISRAKDEPEWMLKHRLESLKVFNEWHNPRFGVDISGLDLGKIVSYIKPDAKKSTSWEEVPEEVKEAFDKLGIPEAERKYLAGVGAQLDSEIVYQNMKKELEKMGVIFLDMESAVREYPDLVKKYFMKLVPITDHKFAALHGAIWSGGTFLYVPAGVKIPMPLQAYFLMSNPGMGQFEHTIIVAEEGSEVTFIEGCSAPRYNIINLHAGMVEIYVKKGAKVKYLTIQNWSKNTYNLNTKRSIVDEEGSMTWVSGSLGSQKTMLYPMTILKGKGARAESMSITYAGPGQHMDTGSKVVHLAPYTSSIVSAKSISLGGGWAFYRGLLKITKEAVKSKASVECAALMLDNRSKSDTVPIIEVETDRADVGHEARIGRIGEDQIFYLMSRGLSEQEAKAMIVKGFVEPVVKELPFEYAVELNKLLELEIEKSIG”, the “soluble on expression in E. coli” value is reported as “not soluble”.
In the case of “MGSDKIHHHHHHMMFVVNRHINYTDICVAKCPLCAFNNREGYLLSPEEILRKVREVDGITEVHIVGGHNPEVGVEYFEEVFRRIKREKPEVVIKALTATEVYYYAKKEKMSIREFLSRLKDAGLQAMPGGGAEILVDSVRRKISPNKCSSDEWLRVMKIAHELGIKSNATMLFGHVEEIRHRAIHLYRLRKLQEKTGGFVSFIPLVYHPENNPLGKIVREKTNPVDILKTIAVSRIALDNFRSVRAYWVMLGEKLTEVALRFGANDIDGTVVEEKVTHAAGAETPAGLTVERLVEICRSAGKRVGQRDTFCNILKWYA”, the “soluble on expression in E. coli” value is reported as “not soluble”.
In the case of “MGSDKIHHHHHHMMIMLDPFSEKAKELLKGFGSINDFMDAIPKIVSVDDVIERIRVVKNEKLIDKFLDQDNVMDLAQFYALLGALSYSPYGIELELVKKANLIIYSERLKRKKEIKPEEISIDVSTAIEFPTEDVRKIERVYGKIPEYTMKISDFLDLVPDEKLANYYIYEGRVYLKREDLIRIWSKAFERNVERGVNMLYEIRDELPEFYRKVLGEIQAFAEEEFGRKFGEIQGGKLRPEFFPPCIKNALKGVPQGIRNYAITVLLTSFLSYARICPNPPRRNVRVKDCIKDIRVITEEILPIIIEAANRCSPPLFEDQPNEIKNIWYHLGFGYTANPSLEDSGNSTWYFPPNCEKIRANAPQLCTPDKHCKYIRNPLTYYLRRLYLEGRRNAPKRGNKRGKKELLHQ”, the “soluble on expression in E. coli” value is reported as “not soluble”.
For “MGSDKIHHHHHHMMRGAPMTLRPRLICLPPAGAGPSLFRSWVQNSESIFDVVPVALPGREAHFTKPLPRDIQSLADHVTNEIIGLLQAPYALFGYSMGAVVAYELLRHLSLRRLPLPDAFYILGSNAPDRVLEGREPIHSMTSEDFQQSLVEIGGTPDEILRDREAMALFEPVLRNDFRICETYEFTPPHLPVTFPVHVFVADADHLVSWKAAGAWENCIGQDITMHGIEGSHMLPPQAFAHFIGKLGQLWQTDQVQACAVSTRTA”, the “soluble on expression in E. coli” value was “not soluble”.
In the case of “MGSDKIHHHHHHMMTDARTTAEGGMETSYGFHKVDEGKKQGLVNEVFHKVAKRYDIMNDVMSAGLHRLWKDAMVSALSPRKDPSYKILDVAGGTGDVAFRIIEASNRLAHATVLDINGSMLAVGEERAAKKKLSDNLTFVEANAEELPFEANTFDAYTVAFGIRNVPRIDVALKEAYRVLKRGGRLLVLEFSEVDMPLLDRVYDAWSFNAIPQFGKMITGDAEPYQYLVESIRKFPNQEDFATMIRTAGFSRVTYTNYTGGIAALHSGWKL”, the “soluble on expression in E. coli” value is reported as “not soluble”.
For “MGSDKIHHHHHHMMTLTVEYYFTHPQDKLGMYASDPEDNSQEHGHEFAELVIVEEGHGLHVINGRPLYIQQGDVFYVQPGDVHYYDELGTLKLINVLINPAVAFGYLQQMEGLLQQLSAQRAACYGWLAPETRSYCRELVEKIFSPALRAADNTPLRESLFFQLVTTILTAESEAEYSSTRYKLHKLLTWLQEHCFEEHNWQQLAEQFHLTTRTAFRHIKEATGLTPDNYLKRLRLVSARVKLRETEMTITEVAYLCGFANSNHFTTLYKKVFGLTPSADRRRPPG”, the “soluble on expression in E. coli” value was “not soluble”.
For “MGSDKIHHHHHHMMYKHVALLVRQDDMSHEEFVDYWQANHTPIAKDIEGVVRYQQVLPTEPAHAEFDGLAELYFETLEDLHEALGSPGSRDYDPTKEIAAKAREDVNNFLAVEERPRIIGEEIVQKDEVDGDTDGLYKHSAFLVRQDDMTHEEFVDYWQTNHTPIAREIEGVVKYNTVIPTDPENAEFDGVAELYFDDIEKLYDALGSEGLRDYAPDRGKAKAAREDVNNFLAIDERPRFIGQEQLVKDEG”, the “soluble on expression in E. coli” value was “not soluble”.
With “MGSDKIHHHHHHMNALTWLTKHSQAVIFRKKLAGLTACSQMIELSTPLNDGQRKFIFRQQSARATLLAINYAQEAYILQHLDALPFTPKVYYQTANSSLLTWLEGKPATAFDPDLLEQLALQLATLHAYPLPKQRTILQLAERCQLLWDRLTPSQQHQLNFCPPFKKIEPLQLAICHHDLHLANLIQHQQQLFIIDWEYSAISDPVLEIALFFQANTLNSVQKQFFLTTYLSKINLNEPLFKQKMAEYTPAIQQLSQLWYALSEAIT” the “soluble on expression in E. coli” value was “not soluble”.
For “MGSDKIHHHHHHMNAVISILVENTTPSPSLIGEYGFSALVEVDERKILFDTGSSDALFKNAENLGVKLEEVEALVISHGHFDHTSAVIPFLQRFGPKKLYLHPGIFSQRYLQGKKGLGPNIGCPFEPEDLVKNGAEIIFIDSFSEIMPGVFISGEIPRRNSFENTGGNFKVATHHGLLEDRLLDDMALLVDHPEGLIIISGCAHSGMINTIEYIREKTGRSKILAFIGGTHLITASEDRLAQTIAVLKMMDIEKIAVGHCTGFYAAARLLNELGPRVIKADTGMSFSF”, the “soluble on expression in E. coli” value was “not soluble”.
For “MGSDKIHHHHHHMNDYIIEMLNITKEFPGIIANDNITLRLKKGEIHALLGENGAGKSTLMSVLFGLYQPEKGEIRKNGNTVKINNPNDANALGIGMVHQHFKLVEIFTVLENIILGVEPHALGFLQKKKAREKVVELSKQYGLEVNPDALIEKISVGMQQRVEILKMLYRDNEILIFDEPTAVLTPQEIDELMEIMRRFAKEGKSILFITHKLNEIMAVADRCTVLRKGQYVGTVDIKDTTKEELSRMMVGRDVSFRVQKETMTPGRVVLSVRNVSVPSKTSKKNAVSNVSFDVRAGEIVCLAGIDGNGQTEFVSALTGLERHTSGTITLCDQDISKASVRTRSQAGMSHIPEDRHKYGLVLDYTLEDNLVIQRYWQPQFQRFGFIRRKAVRSYAEGLIKQYDVRSGQGPLTIARSMSGGNQQKTIIGREIDKDHELLVAVQPTRGLDVGAIEYIHKQLVARRNAGKAVLLVSLELDEVMNVSDRILVMYEGEIVGELDPKTTTVQELGLYMSGAKRNLKEGSHAG”, the “soluble on expression in E. coli” value was “not soluble”.
In the case of “MGSDKIHHHHHHMNEADVTKFVNNARKTLTDAQLLCSSANLRIVDIKKKLSSWQLSISKLNFLIVGLRQQGKFLYTILKEGIGTKLIQKQWNQAVLVVLVDEMKYWQYEITSKVQRLDGIVNELSISEKDDTDPSKLGDYISRDNVNLLNDKLKEVPVIERQIENIKLQYENMVRKVNKELIDTKLTDVTQKFQSKFGIDNLMETNVAEQFSRELTDLEKDLAEIMNSLTQHFDKTLLLQDKKIDNDEREELFKVVQGDDKELYNIFKTLHEVIDDVDKTILNLGQFLQAKIKEKTELHSEVSEIINDFNRNLEYLLIFKDISNLIDSFKNSCTQDIQTTKELCEFYDNFEESYGNLVLEAKRRKDVANRMKTILKDCEKQLQNLDAQDQEERQNFIAENGTYLPETIWPGKIDDFSSLYTLNYNVKNP”, the “soluble on expression in E. coli” value is reported as “not soluble”.
In the case of “MGSDKIHHHHHHMNEIVKLISKHNDVRTGAINLIVSENRMSPAALAALSSDLASRYAAPFYAGTDISQEIVAITEQKAKKLFNAEYVNISPISGSASLMAVVFALTSPGDKVGRVPPFFPGGGYPFNYEVFDRVSLPLPFDDEEWQLDLEATLELLEREKPKLVILGASIFTVPMPVREVADLVHSYGGIVAYDGSHSLGLIVGKQYQDPLNEGADILFGSTHKTFPGPQGGIIVTNSKELNDRIDIVSNFTPLNGPTMICNPHLARIASLGIVIDEVPWERYAEQVVKNSRAFANTLQAKGYEMRGQSTKKFSELSYCHQVLPKLDRQMGQGYRDKLKQHNIHVDGFMRVGTAEITRLGYVEADCTRISEIMAEIVSSNQDVIPSLRHEVVEMNANHQHIVM”, the “soluble on expression in E. coli” value is reported as “not soluble”.
For “MGSDKIHHHHHHMNELTNKLQQVMVPKAALIAYEYRENRYGNGMHYLELHPINDRGRMEAAMPVTYEFMDSLVESYTDDRRNVPHGKIPANMLWCDTRKGHERYIWYNPPGKRRMFFAGSLNIPDGTFHVPGVIYKVSGDRLDIFSYKGEKPAENSPLFLAPFFNVTGSSVCLGNAALTPPEDMTFSKLLEYWEKRFWLSEFSHLGGSRNPTGSNLVSVTEKARANPFDENELKPMSKQLKDLLA”, the “soluble on expression in E. coli” value was “not soluble”.
In the case of “MGSDKIHHHHHHMNFAMTPEEAKTNEAYCRALIELLYQLADDDYIVAYRGSEWLGLAPHIEEDVAFSSITQNTMGHAVMFYELLEQLGEGDADTLAHERDPALRRNSVYLEKKNGSGTYLDEPHYDWALTVIRHFFYETFKKIRLEALTQSSYVPLAKAAQRVLMEQPYHLAHWKTWLCQLQQSTEEAKNRLMERIDEAWLEILDMLELGLKGGEMVEYQLITDEATIQQQWVKEMNKSLFYVPSQSLQKQEGNGRNGEHTDDLQQALSTCSEVYNSDRHAVW”, the “soluble on expression in E. coli” value is reported as “not soluble”.
In the case of “MGSDKIHHHHHHMNFCRILLKPLKKNEALSGYSAEGLHYLTDNKHFNPELPFSRQEFITVKPQKQQGMSISGFQPKLQLIIKDEHFDSVNQQGNYILKPSPEEYPFLAENEHATMRIMKELGFDVPENGLVSFAGEQNHKEFAFVITRFDRDKQQKPMHQEQLDGAMNIRDKYGKIGADNEQYVSYEQIAKFILQHTENHLAQQREIFRRIIYAYLLGNNDLHLRNFSFIYPKNSHPKLAPIYDFVSVSPYPEIFNSTLLALPLLAREEGNATLAKGFNTQYGEYIGDDFVEFGENIGLNKNVIIQKLIPEIIQEKEKVEQIYSQSFMPQPHIDCVLKTYRKRLALLNLLNEPEL”, the “soluble on expression in E. coli” value is reported as “not soluble”.
In the case of “MGSDKIHHHHHHMNFISRVTKKNTYMKKAVIYSRVSTDEQAQLGYSLRDQERCLRLFCEKNDLEVVHHYQDDHSAKDFNRPQFQQFLRDVKSKRIKVDYFVCLKQDRFSRDTRLALNSVHDLEKLGVTVKYVENNLDLSIAENIIPYLLNFGIAELENKRLSERTKKGMRQAKREGRWVGTPPRGYKSIPDSTGKKILTPNQYSTLIIEAFTEFAQGNHSTESLRKVLYARGLKVSENQFPNILKNPIYCGKIRIDEWKEEKEEIVIGIHEPLISVELFEKVQRILNGTSTPNKPHKKLDPELPLRPFLKCSCGSNLTGSRSRSRNGNYHYYYHCQNGCSVRFPAKVANKKFETFLSMFSFSEDVILLYKEVLKDEFSKQVKERLELSAADAALKLKTQNLLDNADEKYIANELDNTTYQRVKEKYQKILDTITNKELDSKVVKSEFEKYLKGVTLLDSLDVKYKEGTIEFKNALLGSIFMGKLEFSENEYRTTQINSVVENLLLNFNELASYKKEKATTNSGFLQQAPPLGLEPRTP”, the “soluble on expression in E. coli” value is reported as “not soluble”.
For “MGSDKIHHHHHHMNFKRLIIYEAFARAYPGEKGKKFDSLIKDLERLKGMGINTVWLMPIHPTGIEGRKGTLGSPYAIRDYYEIDPLIGTKDDFKRFVKRAHELNMYVLMDMVLNHAAADNVLVREHPEWFLRDEKGNPTRKVPDWTDIVDFDYSNGELRKYMINMMKYWVEEFDVDGFRCDVAGLVPLDFWLQARKELDPVKRLIWLSETHDPYMYQAFDITYDYDGYYKFRDFIEGRGSLREYVDFLRMQDHMYPRGYIKMRFLENHDQPRIAKFIEEDSLVHWIAFLFTFKGVPLVHNGQEYGLKEDVDIFNEYTLPFPMEENRISILHRKLAHYRYGTSVFSEGEMLFVKNDQPEKVISYLWRYENRYILCMLNPLLENTKVTLDFSGIWESACIHSKNVFNDEIVRVPVKNSRATVEIGKEPLILSFVLY”, the “soluble on expression in E. coli” value was “not soluble”.
